Laboratory results reported in publication PMC10352329 (Nature Communications, 2023).
One block for each binder: values may come before it. Where no end group is shown, it is not given here.

Key:
Settings in all cases: both partners purified
[1] = target: N-terminal bromodomain of human BRD4 (residues 44–168) (human, UniProt O60885 44-168); test: ITC; 100 µM protein in the cell, 1 mM acetylated histone NT peptide in the syringe; 25 °C; 10 mM HEPES-NaOH pH 7.4, 150 mM NaCl; single binding site model
[2] = target: T1, K12/K16-acetylated human histone H4 (as it stands in H4acNuc) (human, UniProt P62805 1-103, acetyl-lysine at K12 and K16); test: cryo-EM structure; p300_(BRPHZT) or CBP_(BRPHZT), acetyl-CoA and nucleosome mixed 4:6:1 in 20 mM HEPES-NaOH pH 7.2, 150 mM NaCl, 1 μM ZnCl2, 1 mM TCEP; purified and cross-linked by GraFix (glutaraldehyde)
T1 construct: human histone H4 ORF with the codons of K12 and K16 replaced by TAG for acetyllysine; The H4 chain of m6; met p300/CBP only inside the nucleosome; also called H4K12ac/K16ac; H4NTac; source: cell-free synthesis (E. coli S30 extract, genetic code reprogramming), purified, assembled into H4acNuc

[3] = target: T2, human p300BRP (residues 1048–1282), wild type (human, UniProt Q09472 1048-1282, fluorescently labeled with a His tag Labeling Kit (microscale thermophoresis only)); test: ITC; 100 µM protein in the cell, 1 mM acetylated histone NT peptide in the syringe; 25 °C; 10 mM HEPES-NaOH pH 7.4, 150 mM NaCl; single binding site model
T2 sequence (looked up): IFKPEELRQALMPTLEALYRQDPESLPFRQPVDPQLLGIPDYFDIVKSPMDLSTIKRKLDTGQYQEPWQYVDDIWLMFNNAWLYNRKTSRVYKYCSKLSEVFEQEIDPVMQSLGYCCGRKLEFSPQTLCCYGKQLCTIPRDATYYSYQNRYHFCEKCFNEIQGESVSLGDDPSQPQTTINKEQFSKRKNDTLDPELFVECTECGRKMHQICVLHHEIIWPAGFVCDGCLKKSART

- Kd [1]: 430 ± 5 µM
Binder: PAPKK(Ac)GSK(Ac)KAVTK [di-acetylated H2B peptide K12ac/K15ac]

- binding result [2]: binds
B1: human p300_(BRPHZT) (residues 1048–1836) (domain or fragment)
chain: IFKPEELRQALMPTLEALYRQDPESLPFRQPVDPQLLGIPDYFDIVKSPMDLSTIKRKLDTGQYQEPWQYVDDIWLMFNNAWLYNRKTSRVYKYCSKLSEVFEQEIDPVMQSLGYCCGRKLEFSPQTLCCYGKQLCTIPRDATYYSYQNRYHFCEKCFNEIQGESVSLGDDPSQPQTTINKEQFSKRKNDTLDPELFVECTECGRKMHQICVLHHEIIWPAGFVCDGCLKKSARTRKENKFSAKRLPSTRLGTFLENRVNDFLRRQNHPESGEVTVRVVHASDKTVEVKPGMKARFVDSGEMAESFPYRTKALFAFEEIDGVDLCFFGMHVQEYGSDCPPPNQRRVYISYLDSVHFFRPKCLRTAVYHEILIGYLEYVKKLGYTTGHIWACPPSEGDDYIFHCHPPDQKIPKPKRLQEWYKKMLDKAVSERIVHDYKDIFKQATEDRLTSAKELPYFEGDFWPNVLEESIKELEQEEEERKREENTSNESTDVTKGDSKNAKKKNNKKTSKNKSSLSRGNKKKPGMPNVSNDLSQKLYATMEKHKEVFFVIRLIAGPAANSLPPIVDPDPLIPCDLMDGRDAFLTLARDKHLEFSSLRRAQWSTMCMLVELHTQSQDRFVYTCNECKHHVETRWHCTVCEDYDLCITCYNTKNHDHKMEKLGLGLDDESNNQQAAATQSPGDSRRLSIQRCIQSLVHACQCRNANCSLPSCQKMKRVVQHTKGCKRKTNGGCPICKQLIALCCYHAKHCQENKCPVPFCLNIKQKLRQQQLQHRLQQAQMLRRRMASMQ
modifications: autoacetylated form containing K1542ac, K1546ac, K1549ac, K1550ac, K1551ac, K1554ac, K1555ac, K1558ac and K1560ac

- binding result [2]: binds
B2: human CBP_(BRPHZT) (residues 1084–1873) (domain or fragment)
chain: IFKPEELRQALMPTLEALYRQDPESLPFRQPVDPQLLGIPDYFDIVKNPMDLSTIKRKLDTGQYQEPWQYVDDVWLMFNNAWLYNRKTSRVYKFCSKLAEVFEQEIDPVMQSLGYCCGRKYEFSPQTLCCYGKQLCTIPRDAAYYSYQNRYHFCEKCFTEIQGENVTLGDDPSQPQTTISKDQFEKKKNDTLDPEPFVDCKECGRKMHQICVLHYDIIWPSGFVCDNCLKKTGRPRKENKFSAKRLQTTRLGNHLEDRVNKFLRRQNHPEAGEVFVRVVASSDKTVEVKPGMKSRFVDSGEMSESFPYRTKALFAFEEIDGVDVCFFGMHVQEYGSDCPPPNTRRVYISYLDSIHFFRPRCLRTAVYHEILIGYLEYVKKLGYVTGHIWACPPSEGDDYIFHCHPPDQKIPKPKRLQEWYKKMLDKAFAERIIHDYKDIFKQATEDRLTSAKELPYFEGDFWPNVLEESIKELEQEEEERKKEESTAASETTEGSQGDSKNAKKKNNKKTNKNKSSISRANKKKPSMPNVSNDLSQKLYATMEKHKEVFFVIHLHAGPVINTLPPIVDPDPLLSCDLMDGRDAFLTLARDKHWEFSSLRRSKWSTLCMLVELHTQGQDRFVYTCNECKHHVETRWHCTVCEDYDLCINCYNTKSHAHKMVKWGLGLDDEGSSQGEPQSKSPQESRRLSIQRCIQSLVHACQCRNANCSLPSCQKMKRVVQHTKGCKRKTNGGCPVCKQLIALCCYHAKHCQENKCPVPFCLNIKHKLRQQQIQHRLQQAQLMRRRMATMN

- Kd [3]: 200 ± 30 µM
Binder: KAVTK(Ac)AQK(Ac)KDGK [di-acetylated H2B peptide K20ac/K23ac]
